Patent publication US20100203046A1 (Biogen, published 2010)

Legend:
human C1q (Sigma C0660) [1] = target: T1, human C1q (Sigma C0660) (human, UniProt P02745 23-245; P02746 28-253; P02747 29-245); experiment: C1q ELISA on CD2, purified
T1 construct: Bought protein; also called complement protein C1q
Method: (§1) The C1q binding assay was performed by coating 96 well Maxisorb ELISA plates (Nalge-Nunc Rochester, N.Y., USA) with 50 μl recombinant soluble human CD2 at 10 μg/ml overnight at 4° C. in PBS. The wells were aspirated and washed three times with wash buffer (PBS, 0.05% Tween 20) and blocked for >1 h with 200 μ/well of block/diluent buffer (0.1 M Na₂HPO₄, pH 7, 0.1 M NaCl, 0.05% Tween 20, 0.1% gelatin). The antibody to be tested was diluted in block/diluent buffer starting at 15 μg/ml with 3-fold dilutions. 50 μl were added per well, and the plates incubated for 2 h at room temperature. After aspirating and washing as above, 50 μl/well of 2 μg/ml of Sigma human C1q (C0660) diluted in block/diluent buffer was added and incubated for 1.5 h at room temperature. After aspirating and washing as above, 50 μl/well of chicken anti human C1q (Cedarlane laboratories CL2101AP), diluted 2,000-fold in block/diluent buffer, was added. After incubation for 1.5 h at room temperature, the wells were aspirated and washed as above. 50 μl/well of donkey F(ab′)₂ anti chicken IgY HRP conjugate (Jackson ImmunoResearch 703-036-155) diluted to 1:5,000 in block/diluent was then added, and the wells incubated for 1 h at room temperature. After aspirating and washing as above, 100 μl TMB substrate (420 μM TMB, 0.004% H₂O₂ in 0.1 M sodium acetate/citric acid buffer, pH 4.9) was added and incubated for 2 min before the reaction was stopped with 100 μl 2 N sulfuric acid. The absorbance was read at 450 nm with a Softmax P instrument, and Softmax software was used to determine the relative binding affinity (C value) with a 4-parameter fit.

[2] = target: T2, human FcγRI (CD64) on IFNγ-activated U937 cells (human, UniProt P12314 16-374); experiment: CD64 bridging assay, purified
T2 construct: whole, on cells; also called FcγR1

[3] = target: T3, human FcγRIII (CD16), CD16a (F158), on CD16-transfected Jurkat cells (human, UniProt P08637 17-254); experiment: CD16 bridging assay, transient
T3 construct: whole, on cells

human C1q (Sigma C0660) [4] = target: T1, human C1q (Sigma C0660); experiment: C1q ELISA on CD2, transient
Method: as §1

T2 sequence (P12314 16-374): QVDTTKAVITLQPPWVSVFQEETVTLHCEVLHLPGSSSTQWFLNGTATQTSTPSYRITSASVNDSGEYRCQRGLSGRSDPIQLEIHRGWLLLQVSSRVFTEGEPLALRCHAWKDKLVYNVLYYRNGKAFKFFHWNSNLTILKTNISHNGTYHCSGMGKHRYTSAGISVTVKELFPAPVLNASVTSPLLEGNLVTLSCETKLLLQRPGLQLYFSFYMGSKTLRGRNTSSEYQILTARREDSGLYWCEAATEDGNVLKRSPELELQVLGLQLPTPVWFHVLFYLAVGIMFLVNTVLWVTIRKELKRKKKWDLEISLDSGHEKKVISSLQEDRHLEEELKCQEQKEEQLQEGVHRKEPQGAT
T1 sequence (P02745 23-245 limits assumed, chain 1 of 3): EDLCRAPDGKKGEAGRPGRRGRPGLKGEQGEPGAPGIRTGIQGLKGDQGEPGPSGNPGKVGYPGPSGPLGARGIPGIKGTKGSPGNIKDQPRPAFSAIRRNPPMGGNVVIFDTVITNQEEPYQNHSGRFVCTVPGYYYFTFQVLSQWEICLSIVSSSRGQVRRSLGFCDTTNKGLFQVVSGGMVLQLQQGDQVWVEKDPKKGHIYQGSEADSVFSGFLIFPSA
T1 sequence (P02746 28-253 limits assumed, chain 2 of 3): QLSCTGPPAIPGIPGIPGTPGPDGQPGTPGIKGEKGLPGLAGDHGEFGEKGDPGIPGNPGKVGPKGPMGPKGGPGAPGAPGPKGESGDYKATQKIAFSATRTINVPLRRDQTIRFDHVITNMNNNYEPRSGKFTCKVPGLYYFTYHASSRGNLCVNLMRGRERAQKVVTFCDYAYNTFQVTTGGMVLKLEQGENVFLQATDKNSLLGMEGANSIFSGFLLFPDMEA
T1 sequence (P02747 29-245 limits assumed, chain 3 of 3): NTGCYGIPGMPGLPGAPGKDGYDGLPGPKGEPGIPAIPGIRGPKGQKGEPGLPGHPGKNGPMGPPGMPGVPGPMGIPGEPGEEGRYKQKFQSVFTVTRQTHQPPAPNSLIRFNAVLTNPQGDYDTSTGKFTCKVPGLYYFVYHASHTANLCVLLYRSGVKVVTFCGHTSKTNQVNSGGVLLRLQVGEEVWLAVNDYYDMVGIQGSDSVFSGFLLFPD
T3 sequence (P08637 17-254): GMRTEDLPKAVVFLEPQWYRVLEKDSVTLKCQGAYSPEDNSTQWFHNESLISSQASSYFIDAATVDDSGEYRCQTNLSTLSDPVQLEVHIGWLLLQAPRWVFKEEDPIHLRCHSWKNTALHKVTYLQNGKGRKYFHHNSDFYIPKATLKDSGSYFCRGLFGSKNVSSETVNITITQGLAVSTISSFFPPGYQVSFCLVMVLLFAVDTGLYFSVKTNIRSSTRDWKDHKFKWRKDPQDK

B1: chCB6-huIgG1 K334D (antibody, name in EU numbering)
heavy: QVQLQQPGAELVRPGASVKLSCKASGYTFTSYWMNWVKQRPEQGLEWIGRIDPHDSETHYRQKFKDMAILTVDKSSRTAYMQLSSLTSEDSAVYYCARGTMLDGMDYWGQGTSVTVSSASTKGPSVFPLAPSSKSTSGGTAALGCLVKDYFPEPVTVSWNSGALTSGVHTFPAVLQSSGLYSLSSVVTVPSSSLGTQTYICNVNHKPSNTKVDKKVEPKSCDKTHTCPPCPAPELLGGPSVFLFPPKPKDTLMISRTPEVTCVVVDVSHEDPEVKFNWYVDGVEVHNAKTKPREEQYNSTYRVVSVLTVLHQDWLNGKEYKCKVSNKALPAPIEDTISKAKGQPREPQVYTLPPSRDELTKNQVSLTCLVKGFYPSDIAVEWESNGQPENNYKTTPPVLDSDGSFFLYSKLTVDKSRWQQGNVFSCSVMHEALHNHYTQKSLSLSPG
light: QIVLTQSPAIMSASPGEKVTMTCRASSSVSHMHWYQQKSGTSPKRWIYDTSKLASGVPARFSGSGSGTSYSLTISSVEAEDAATYYCQQWSSNPLTFGAGTKLELKRTVAAPSVFIFPPSDEQLKSGTASVVCLLNNFYPREAKVQWKVDNALQSGNSQESVTEQDSKDSTYSLSSTLTLSKADYEKHKVYACEVTHQGLSSPVTKSFNRGEC
notes: copies: 2 + 2
Human C1q (Sigma C0660) [1]
  binding result: binds
[2]
  binding result: binds
[3]
  binding result: binds

B2: chCB6-huIgG1 D265E (antibody, name in EU numbering)
heavy: not shown
light: QIVLTQSPAIMSASPGEKVTMTCRASSSVSHMHWYQQKSGTSPKRWIYDTSKLASGVPARFSGSGSGTSYSLTISSVEAEDAATYYCQQWSSNPLTFGAGTKLELKRTVAAPSVFIFPPSDEQLKSGTASVVCLLNNFYPREAKVQWKVDNALQSGNSQESVTEQDSKDSTYSLSSTLTLSKADYEKHKVYACEVTHQGLSSPVTKSFNRGEC
notes: copies: 2 + 2
[3]
  binding result: no binding

B3: chCB6-huIgG1 Y296S (antibody, name in EU numbering)
heavy: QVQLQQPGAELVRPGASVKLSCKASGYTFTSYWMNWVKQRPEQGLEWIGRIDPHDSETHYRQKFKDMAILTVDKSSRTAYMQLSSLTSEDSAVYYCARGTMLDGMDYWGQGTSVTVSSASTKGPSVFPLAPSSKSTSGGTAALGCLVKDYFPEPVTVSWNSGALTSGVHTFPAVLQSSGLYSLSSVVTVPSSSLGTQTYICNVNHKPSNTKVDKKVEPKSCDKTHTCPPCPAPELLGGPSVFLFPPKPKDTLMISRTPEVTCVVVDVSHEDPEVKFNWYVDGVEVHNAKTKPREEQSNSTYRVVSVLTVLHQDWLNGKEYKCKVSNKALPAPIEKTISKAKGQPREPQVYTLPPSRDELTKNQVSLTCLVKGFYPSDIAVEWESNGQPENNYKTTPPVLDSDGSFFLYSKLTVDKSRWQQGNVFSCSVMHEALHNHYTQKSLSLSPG
light: QIVLTQSPAIMSASPGEKVTMTCRASSSVSHMHWYQQKSGTSPKRWIYDTSKLASGVPARFSGSGSGTSYSLTISSVEAEDAATYYCQQWSSNPLTFGAGTKLELKRTVAAPSVFIFPPSDEQLKSGTASVVCLLNNFYPREAKVQWKVDNALQSGNSQESVTEQDSKDSTYSLSSTLTLSKADYEKHKVYACEVTHQGLSSPVTKSFNRGEC
notes: copies: 2 + 2
Human C1q (Sigma C0660) [1]
  fold decrease in binding vs WT: 5 fold
Human C1q (Sigma C0660) [4]
  fold decrease in binding vs WT: 4 fold

B4: chCB6-huIgG1 E293D (antibody, name in EU numbering)
heavy: not shown
light: QIVLTQSPAIMSASPGEKVTMTCRASSSVSHMHWYQQKSGTSPKRWIYDTSKLASGVPARFSGSGSGTSYSLTISSVEAEDAATYYCQQWSSNPLTFGAGTKLELKRTVAAPSVFIFPPSDEQLKSGTASVVCLLNNFYPREAKVQWKVDNALQSGNSQESVTEQDSKDSTYSLSSTLTLSKADYEKHKVYACEVTHQGLSSPVTKSFNRGEC
notes: copies: 2 + 2
[3]
  fold decrease in binding vs WT: 4 fold

B5: chCB6-huIgG1 K334Q (antibody, name in EU numbering)
heavy: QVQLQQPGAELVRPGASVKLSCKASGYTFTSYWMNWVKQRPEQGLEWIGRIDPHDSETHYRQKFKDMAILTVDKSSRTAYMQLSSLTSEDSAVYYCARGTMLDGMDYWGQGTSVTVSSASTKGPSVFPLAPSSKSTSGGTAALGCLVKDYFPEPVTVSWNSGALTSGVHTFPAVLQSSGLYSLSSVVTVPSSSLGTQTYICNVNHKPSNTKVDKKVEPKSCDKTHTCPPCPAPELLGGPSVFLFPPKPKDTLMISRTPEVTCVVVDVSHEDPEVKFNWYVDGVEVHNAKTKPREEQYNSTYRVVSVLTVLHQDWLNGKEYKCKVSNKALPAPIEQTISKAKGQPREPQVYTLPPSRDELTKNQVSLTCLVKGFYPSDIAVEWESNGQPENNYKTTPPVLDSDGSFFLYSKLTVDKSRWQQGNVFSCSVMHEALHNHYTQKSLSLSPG
light: QIVLTQSPAIMSASPGEKVTMTCRASSSVSHMHWYQQKSGTSPKRWIYDTSKLASGVPARFSGSGSGTSYSLTISSVEAEDAATYYCQQWSSNPLTFGAGTKLELKRTVAAPSVFIFPPSDEQLKSGTASVVCLLNNFYPREAKVQWKVDNALQSGNSQESVTEQDSKDSTYSLSSTLTLSKADYEKHKVYACEVTHQGLSSPVTKSFNRGEC
notes: copies: 2 + 2
Human C1q (Sigma C0660) [1]
  binding result: binds
[2]
  binding result: binds
[3]
  binding result: binds

B6: chCB6-huIgG1 D270E (antibody, name in EU numbering)
heavy: not shown
light: QIVLTQSPAIMSASPGEKVTMTCRASSSVSHMHWYQQKSGTSPKRWIYDTSKLASGVPARFSGSGSGTSYSLTISSVEAEDAATYYCQQWSSNPLTFGAGTKLELKRTVAAPSVFIFPPSDEQLKSGTASVVCLLNNFYPREAKVQWKVDNALQSGNSQESVTEQDSKDSTYSLSSTLTLSKADYEKHKVYACEVTHQGLSSPVTKSFNRGEC
notes: copies: 2 + 2
[3]
  binding result: binds

B7: chCB6-huIgG1 L234D (antibody, name in EU numbering)
heavy: not shown
light: QIVLTQSPAIMSASPGEKVTMTCRASSSVSHMHWYQQKSGTSPKRWIYDTSKLASGVPARFSGSGSGTSYSLTISSVEAEDAATYYCQQWSSNPLTFGAGTKLELKRTVAAPSVFIFPPSDEQLKSGTASVVCLLNNFYPREAKVQWKVDNALQSGNSQESVTEQDSKDSTYSLSSTLTLSKADYEKHKVYACEVTHQGLSSPVTKSFNRGEC
notes: copies: 2 + 2
[3]
  fold decrease in binding vs WT: 4 fold

B8: chCB6-huIgG1 K334N (antibody, name in EU numbering)
heavy: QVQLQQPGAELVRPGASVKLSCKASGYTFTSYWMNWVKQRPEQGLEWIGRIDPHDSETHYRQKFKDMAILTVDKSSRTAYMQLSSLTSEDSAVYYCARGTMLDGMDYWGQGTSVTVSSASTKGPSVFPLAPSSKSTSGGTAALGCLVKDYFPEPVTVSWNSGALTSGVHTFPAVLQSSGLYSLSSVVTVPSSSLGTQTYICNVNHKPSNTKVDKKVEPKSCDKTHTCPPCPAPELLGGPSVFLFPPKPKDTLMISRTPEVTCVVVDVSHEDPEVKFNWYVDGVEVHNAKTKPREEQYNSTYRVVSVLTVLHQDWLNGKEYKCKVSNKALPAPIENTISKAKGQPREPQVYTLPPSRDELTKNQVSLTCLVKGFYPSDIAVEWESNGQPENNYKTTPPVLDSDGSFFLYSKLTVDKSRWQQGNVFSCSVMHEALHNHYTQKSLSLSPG
light: QIVLTQSPAIMSASPGEKVTMTCRASSSVSHMHWYQQKSGTSPKRWIYDTSKLASGVPARFSGSGSGTSYSLTISSVEAEDAATYYCQQWSSNPLTFGAGTKLELKRTVAAPSVFIFPPSDEQLKSGTASVVCLLNNFYPREAKVQWKVDNALQSGNSQESVTEQDSKDSTYSLSSTLTLSKADYEKHKVYACEVTHQGLSSPVTKSFNRGEC
notes: copies: 2 + 2
Human C1q (Sigma C0660) [1]
  binding result: binds
[2]
  binding result: binds
[3]
  binding result: binds

B9: chCB6-huIgG1 K338M (antibody, name in EU numbering)
heavy: not shown
light: QIVLTQSPAIMSASPGEKVTMTCRASSSVSHMHWYQQKSGTSPKRWIYDTSKLASGVPARFSGSGSGTSYSLTISSVEAEDAATYYCQQWSSNPLTFGAGTKLELKRTVAAPSVFIFPPSDEQLKSGTASVVCLLNNFYPREAKVQWKVDNALQSGNSQESVTEQDSKDSTYSLSSTLTLSKADYEKHKVYACEVTHQGLSSPVTKSFNRGEC
notes: copies: 2 + 2
[3]
  fold decrease in binding vs WT: 6 fold

B10: chCB6-huIgG1 E333D (antibody, name in EU numbering)
heavy: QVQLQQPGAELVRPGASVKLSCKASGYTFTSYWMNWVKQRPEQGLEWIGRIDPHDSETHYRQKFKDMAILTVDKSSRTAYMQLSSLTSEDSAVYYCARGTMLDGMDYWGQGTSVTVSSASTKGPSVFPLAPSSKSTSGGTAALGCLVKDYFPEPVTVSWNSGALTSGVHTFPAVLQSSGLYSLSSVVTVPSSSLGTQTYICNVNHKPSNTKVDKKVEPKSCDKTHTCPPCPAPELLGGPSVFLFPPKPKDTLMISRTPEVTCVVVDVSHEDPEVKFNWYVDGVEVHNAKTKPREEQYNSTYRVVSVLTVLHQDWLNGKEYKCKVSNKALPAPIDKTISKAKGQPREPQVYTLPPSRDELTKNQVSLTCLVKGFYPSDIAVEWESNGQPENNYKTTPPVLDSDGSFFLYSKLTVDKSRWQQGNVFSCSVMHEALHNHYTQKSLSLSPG
light: QIVLTQSPAIMSASPGEKVTMTCRASSSVSHMHWYQQKSGTSPKRWIYDTSKLASGVPARFSGSGSGTSYSLTISSVEAEDAATYYCQQWSSNPLTFGAGTKLELKRTVAAPSVFIFPPSDEQLKSGTASVVCLLNNFYPREAKVQWKVDNALQSGNSQESVTEQDSKDSTYSLSSTLTLSKADYEKHKVYACEVTHQGLSSPVTKSFNRGEC
notes: copies: 2 + 2
Human C1q (Sigma C0660) [1]
  fold decrease in binding vs WT: 2 fold
[2]
  binding result: binds
[3]
  binding result: binds

B11: chCB6-huIgG1 Y296F (antibody, name in EU numbering)
heavy: not shown
light: QIVLTQSPAIMSASPGEKVTMTCRASSSVSHMHWYQQKSGTSPKRWIYDTSKLASGVPARFSGSGSGTSYSLTISSVEAEDAATYYCQQWSSNPLTFGAGTKLELKRTVAAPSVFIFPPSDEQLKSGTASVVCLLNNFYPREAKVQWKVDNALQSGNSQESVTEQDSKDSTYSLSSTLTLSKADYEKHKVYACEVTHQGLSSPVTKSFNRGEC
notes: copies: 2 + 2
[3]
  fold decrease in binding vs WT: 2 fold

B12: chCB6-huIgG1 E294A (antibody, name in EU numbering)
heavy: not shown
light: QIVLTQSPAIMSASPGEKVTMTCRASSSVSHMHWYQQKSGTSPKRWIYDTSKLASGVPARFSGSGSGTSYSLTISSVEAEDAATYYCQQWSSNPLTFGAGTKLELKRTVAAPSVFIFPPSDEQLKSGTASVVCLLNNFYPREAKVQWKVDNALQSGNSQESVTEQDSKDSTYSLSSTLTLSKADYEKHKVYACEVTHQGLSSPVTKSFNRGEC
notes: copies: 2 + 2
Human C1q (Sigma C0660) [1]
  fold decrease in binding vs WT: 3 fold

B13: chCB6-huIgG1 F241H (antibody, name in EU numbering)
heavy: not shown
light: QIVLTQSPAIMSASPGEKVTMTCRASSSVSHMHWYQQKSGTSPKRWIYDTSKLASGVPARFSGSGSGTSYSLTISSVEAEDAATYYCQQWSSNPLTFGAGTKLELKRTVAAPSVFIFPPSDEQLKSGTASVVCLLNNFYPREAKVQWKVDNALQSGNSQESVTEQDSKDSTYSLSSTLTLSKADYEKHKVYACEVTHQGLSSPVTKSFNRGEC
notes: copies: 2 + 2
[3]
  fold decrease in binding vs WT: 9 fold

B14: chCB6-huIgG1 K326N (antibody, name in EU numbering)
heavy: not shown
light: QIVLTQSPAIMSASPGEKVTMTCRASSSVSHMHWYQQKSGTSPKRWIYDTSKLASGVPARFSGSGSGTSYSLTISSVEAEDAATYYCQQWSSNPLTFGAGTKLELKRTVAAPSVFIFPPSDEQLKSGTASVVCLLNNFYPREAKVQWKVDNALQSGNSQESVTEQDSKDSTYSLSSTLTLSKADYEKHKVYACEVTHQGLSSPVTKSFNRGEC
notes: copies: 2 + 2
[3]
  binding result: binds

B15: chCB6-huIgG1 K334E (antibody, name in EU numbering)
heavy: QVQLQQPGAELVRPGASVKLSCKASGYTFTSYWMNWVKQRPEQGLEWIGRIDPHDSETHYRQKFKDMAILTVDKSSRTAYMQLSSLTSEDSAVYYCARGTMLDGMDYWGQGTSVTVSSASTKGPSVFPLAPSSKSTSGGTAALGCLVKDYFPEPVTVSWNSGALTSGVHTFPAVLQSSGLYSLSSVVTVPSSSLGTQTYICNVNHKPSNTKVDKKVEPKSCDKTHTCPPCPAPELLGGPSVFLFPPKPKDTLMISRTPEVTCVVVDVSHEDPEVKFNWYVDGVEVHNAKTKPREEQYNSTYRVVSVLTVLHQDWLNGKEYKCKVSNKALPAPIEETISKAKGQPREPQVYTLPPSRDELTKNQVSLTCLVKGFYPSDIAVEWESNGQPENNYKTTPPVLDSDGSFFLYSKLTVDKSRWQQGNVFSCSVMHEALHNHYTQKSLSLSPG
light: QIVLTQSPAIMSASPGEKVTMTCRASSSVSHMHWYQQKSGTSPKRWIYDTSKLASGVPARFSGSGSGTSYSLTISSVEAEDAATYYCQQWSSNPLTFGAGTKLELKRTVAAPSVFIFPPSDEQLKSGTASVVCLLNNFYPREAKVQWKVDNALQSGNSQESVTEQDSKDSTYSLSSTLTLSKADYEKHKVYACEVTHQGLSSPVTKSFNRGEC
notes: copies: 2 + 2
Human C1q (Sigma C0660) [1]
  binding result: binds
[2]
  binding result: binds
[3]
  binding result: binds

B16: chCB6-huIgG1 K326Q (antibody, name in EU numbering)
heavy: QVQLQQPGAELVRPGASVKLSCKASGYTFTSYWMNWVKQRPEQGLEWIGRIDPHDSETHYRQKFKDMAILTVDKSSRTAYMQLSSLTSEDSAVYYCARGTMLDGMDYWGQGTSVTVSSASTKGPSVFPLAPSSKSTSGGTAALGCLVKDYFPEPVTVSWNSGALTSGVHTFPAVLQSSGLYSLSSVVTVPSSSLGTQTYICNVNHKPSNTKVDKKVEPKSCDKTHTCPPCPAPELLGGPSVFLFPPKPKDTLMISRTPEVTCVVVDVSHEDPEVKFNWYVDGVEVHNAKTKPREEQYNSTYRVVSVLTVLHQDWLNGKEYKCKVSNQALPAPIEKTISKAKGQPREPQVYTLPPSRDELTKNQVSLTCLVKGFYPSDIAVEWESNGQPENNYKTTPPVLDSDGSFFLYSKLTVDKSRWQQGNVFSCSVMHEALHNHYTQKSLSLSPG
light: QIVLTQSPAIMSASPGEKVTMTCRASSSVSHMHWYQQKSGTSPKRWIYDTSKLASGVPARFSGSGSGTSYSLTISSVEAEDAATYYCQQWSSNPLTFGAGTKLELKRTVAAPSVFIFPPSDEQLKSGTASVVCLLNNFYPREAKVQWKVDNALQSGNSQESVTEQDSKDSTYSLSSTLTLSKADYEKHKVYACEVTHQGLSSPVTKSFNRGEC
notes: copies: 2 + 2
Human C1q (Sigma C0660) [1]
  binding result: binds
[2]
  binding result: binds
[3]
  binding result: binds

B17: chCB6-huIgG1 K326D (antibody, name in EU numbering)
heavy: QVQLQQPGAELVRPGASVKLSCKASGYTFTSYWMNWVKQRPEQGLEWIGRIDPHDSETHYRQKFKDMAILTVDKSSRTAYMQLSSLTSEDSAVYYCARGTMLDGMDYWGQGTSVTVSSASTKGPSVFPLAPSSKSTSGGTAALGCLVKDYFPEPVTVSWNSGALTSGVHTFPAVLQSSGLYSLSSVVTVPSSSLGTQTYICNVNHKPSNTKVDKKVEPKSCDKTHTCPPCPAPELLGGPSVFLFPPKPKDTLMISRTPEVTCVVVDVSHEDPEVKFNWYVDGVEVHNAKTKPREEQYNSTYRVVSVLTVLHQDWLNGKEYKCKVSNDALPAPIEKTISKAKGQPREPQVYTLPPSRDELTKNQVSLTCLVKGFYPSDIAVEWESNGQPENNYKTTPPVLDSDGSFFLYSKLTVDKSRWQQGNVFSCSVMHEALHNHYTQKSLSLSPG
light: QIVLTQSPAIMSASPGEKVTMTCRASSSVSHMHWYQQKSGTSPKRWIYDTSKLASGVPARFSGSGSGTSYSLTISSVEAEDAATYYCQQWSSNPLTFGAGTKLELKRTVAAPSVFIFPPSDEQLKSGTASVVCLLNNFYPREAKVQWKVDNALQSGNSQESVTEQDSKDSTYSLSSTLTLSKADYEKHKVYACEVTHQGLSSPVTKSFNRGEC
notes: copies: 2 + 2
Human C1q (Sigma C0660) [1]
  fold increase in binding vs WT: 2 fold
[2]
  binding result: binds
[3]
  binding result: binds

B18: chCB6-huIgG1 K326E (antibody, name in EU numbering)
heavy: not shown
light: QIVLTQSPAIMSASPGEKVTMTCRASSSVSHMHWYQQKSGTSPKRWIYDTSKLASGVPARFSGSGSGTSYSLTISSVEAEDAATYYCQQWSSNPLTFGAGTKLELKRTVAAPSVFIFPPSDEQLKSGTASVVCLLNNFYPREAKVQWKVDNALQSGNSQESVTEQDSKDSTYSLSSTLTLSKADYEKHKVYACEVTHQGLSSPVTKSFNRGEC
notes: copies: 2 + 2
[3]
  binding result: binds
